Measured values published in article PMC8501021, “Nuclear transporter Importin-13 plays a key role in the oxidative stress transcriptional response” (Nature Communications, 2021).

Columns and labels:
[1] = biological target: T1, GFP-KLF4 (eGFP fused to full-length mouse Kruppel like factor 4) (mouse, UniProt Q60793 1-483); assay: co-IP; HeLa cells co-expressing GFP, GFP-KLF4 or GFP-SP1 with DSRED-IPO13; treated with or without 125 uM H2O2 for 1 h before lysis; lysates with or without GTPgammaS (1.7 mM, 20 min on ice); precipitated with GFP-Trap resin; Western blot with anti-GFP and anti-IPO13; details: partners not purified
T1 construct: Kruppel like factor 4 (KLF4), mouse, full length; inserted in-frame at BamHI and HindIII of pEGFP-C1, C-terminal to eGFP; also called GFP-tagged KLF4; source: HeLa, transfected (pEGFP-C1 construct), in lysate; not shown: eGFP, N-terminal, kept
T1 sequence (Q60793 whole entry, the tested form may be a part): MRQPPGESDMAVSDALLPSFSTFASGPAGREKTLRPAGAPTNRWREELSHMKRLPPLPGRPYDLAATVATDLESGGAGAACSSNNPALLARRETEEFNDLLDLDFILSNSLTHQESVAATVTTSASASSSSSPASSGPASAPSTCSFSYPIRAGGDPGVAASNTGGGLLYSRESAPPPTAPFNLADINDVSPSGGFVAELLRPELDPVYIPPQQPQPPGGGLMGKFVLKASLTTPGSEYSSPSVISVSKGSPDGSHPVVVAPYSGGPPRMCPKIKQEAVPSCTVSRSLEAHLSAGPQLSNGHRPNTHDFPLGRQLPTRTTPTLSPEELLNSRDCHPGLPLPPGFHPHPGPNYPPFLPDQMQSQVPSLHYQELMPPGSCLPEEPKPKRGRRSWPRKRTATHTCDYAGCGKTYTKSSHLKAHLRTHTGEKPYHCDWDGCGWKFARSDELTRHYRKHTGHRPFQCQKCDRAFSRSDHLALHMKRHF

[2] = biological target: T2, GFP-SP1 (GFP fused to specificity protein 1) (UniProt P08047 1-785); assay: as above; details: partners not purified
T2 construct: Specificity protein 1 (SP1); plasmid from Jan-Jong Hung (National Cheng Kung University, Taiwan); Construct was a gift; also called GFP-tagged SP1; source: HeLa, transfected, in lysate
T2 sequence (P08047 whole entry, the tested form may be a part): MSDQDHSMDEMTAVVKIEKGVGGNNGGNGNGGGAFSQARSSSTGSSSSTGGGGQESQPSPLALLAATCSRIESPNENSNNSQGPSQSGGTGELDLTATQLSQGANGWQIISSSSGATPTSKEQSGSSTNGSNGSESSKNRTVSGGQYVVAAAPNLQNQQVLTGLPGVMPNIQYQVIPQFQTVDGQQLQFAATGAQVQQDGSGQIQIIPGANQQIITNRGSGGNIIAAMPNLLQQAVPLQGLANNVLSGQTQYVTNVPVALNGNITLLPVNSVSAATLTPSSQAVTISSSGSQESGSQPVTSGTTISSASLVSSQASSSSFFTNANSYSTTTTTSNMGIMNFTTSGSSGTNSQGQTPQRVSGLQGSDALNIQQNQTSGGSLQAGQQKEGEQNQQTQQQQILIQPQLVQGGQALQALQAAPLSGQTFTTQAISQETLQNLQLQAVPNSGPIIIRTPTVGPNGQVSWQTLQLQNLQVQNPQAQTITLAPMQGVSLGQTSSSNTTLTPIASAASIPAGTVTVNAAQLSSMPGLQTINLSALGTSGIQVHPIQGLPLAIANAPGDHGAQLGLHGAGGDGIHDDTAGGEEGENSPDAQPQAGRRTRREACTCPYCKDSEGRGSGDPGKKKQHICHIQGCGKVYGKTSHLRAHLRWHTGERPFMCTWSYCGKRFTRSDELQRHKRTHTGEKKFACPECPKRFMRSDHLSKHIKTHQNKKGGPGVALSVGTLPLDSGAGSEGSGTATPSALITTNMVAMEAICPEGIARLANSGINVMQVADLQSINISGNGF

B1: DSRED-IPO13 (Importin-13 fused to the DsRed2 fluorescent protein) (natural protein, UniProt O94829 1-963, looked up)
chain: MERREEQPGAAGAGAAPALDFTVENVEKALHQLYYDPNIENKNLAQKWLMQAQVSPQAWHFSWQLLQPDKVPEIQYFGASALHIKISRYWSDIPTDQYESLKAQLFTQITRFASGSKIVLTRLCVALASLALSMMPDAWPCAVADMVRLFQAEDSPVDGQGRCLALLELLTVLPEEFQTSRLPQYRKGLVRTSLAVECGAVFPLLEQLLQQPSSPSCVRQKVLKCFSSWVQLEVPLQDCEALIQAAFAALQDSELFDSSVEAIVNAISQPDAQRYVNTLLKLIPLVLGLQEQLRQAVQNGDMETSHGICRIAVALGENHSRALLDQVEHWQSFLALVNMIMFCTGIPGHYPVNETTSSLTLTFWYTLQDDILSFEAEKQAVYQQVYRPVYFQLVDVLLHKAQFPSDEEYGFWSSDEKEQFRIYRVDISDTLMYVYEMLGAELLSNLYDKLGRLLTSSEEPYSWQHTEALLYGFQSIAETIDVNYSDVVPGLIGLIPRISISNVQLADTVMFTIGALSEWLADHPVMINSVLPLVLHALGNPELSVSSVSTLKKICRECKYDLPPYAANIVAVSQDVLMKQIHKTSQCMWLMQALGFLLSALQVEEILKNLHSLISPYIQQLEKLAEEIPNPSNKLAIVHILGLLSNLFTTLDISHHEDDHEGPELRKLPVPQGPNPVVVVLQQVFQLIQKVLSKWLNDAQVVEAVCAIFEKSVKTLLDDFAPMVPQLCEMLGRMYSTIPQASALDLTRQLVHIFAHEPAHFPPIEALFLLVTSVTLTLFQQGPRDHPDIVDSFMQLLAQALKRKPDLFLCERLDVKAVFQCAVLALKFPEAPTVKASCGFFTELLPRCGEVESVGKVVQEDGRMLLIAVLEAIGGQASRSLMDCFADILFALNKHCFSLLSMWIKEALQPPGFPSARLSPEQKDTFSQQILRERVNKRRVKEMVKEFTLLCRGLHGTDYTADY
notes: Importin-13 (IPO13); PCR generated IPO13 insert put into pDsRed2-C1 at EcoRI and SmaI; also called dsRed2-IPO13; DSRED-tagged IPO13; source: HeLa, transfected (pDsRed2-fused IPO13), in lysate
- fold increase in co-precipitation with GTPgammaS against no addition, H2O2 treated cells [1]: ~2 fold
- fold increase in co-precipitation with GTPgammaS against no addition, H2O2 treated cells [2]: ~2 fold
